According to the supplement of paper PMC12042874:
± gives the uncertainty stated by the source.

assay: amyloid nucleation score (Sup35N fusion, yeast selection) (log enrichment); library NNK1; higher = more nucleation; inactive = no reads after selection
In short: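 Peptides of 20 random codons fused to Sup35N were expressed in psi-negative yeast, induced 24 hours with 100 μM copper sulfate, then grown 7 days at 30°C on medium lacking adenine and uracil. Input and output plasmid inserts were Illumina-sequenced. Nucleation score is the DiMSum log enrichment of output over input reads, centred on the mode score of non-aggregating sequences, excluding sequences with under 100 input reads. Random libraries had three technical output replicates.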

| Substance | amyloid nucleation score |
| --- | --- |
| DACCYDECVS | 0.782 ± 0.25 |
| DACIGWVRYRSILCCMVLVA | -0.005 ± 1.7 |
| DADDLSIGAVNRTC | -0.066 ± 0.5 |
| DAEFRHGAIIGLMVGGVVIA | 3.45 ± 0.22 |
| DARSNSVLYQRCSTSRGRSG | -0.615 ± 0.84 |
| DCCKLTDQQWDVIHAGIWGG | 1.55 ± 0.69 |
| DCDGVLSLCIMVHEIYRKVG | inactive |
| DCISRLWR | -0.83 ± 0.89 |
| DCPTYWFVAKFFANWVR | inactive |
| DEPLNTMRSYACWSSDSSHP | 0.139 ± 0.48 |
| DFFRFC | inactive |
| DFFRSANMYLGFASGGEGNG | 0.77 ± 0.52 |
| DFLIAVMEQSMAQFKGHSSD | 0.071 ± 1.2 |
| DFRWWYLFC | 1.11 ± 0.26 |
| DFYTVLEKYVM | -0.157 ± 0.7 |
| DGFCCGIYYILSEMTGHSRS | 1.41 ± 0.65 |
| DGHFVALSVLVCTMRC | 1.01 ± 0.65 |
| DGLICVPVKLYVNIGKTFTW | 0.847 ± 0.41 |
| DGLKWVDWPWGHYGEMMVEM | 1.01 ± 0.55 |
| DGRKG | 1.26 ± 0.66 |
| DGRVKAKVMMVRNGSLRNVL | 0.002 ± 0.4 |
| DGSGGPYIGILLWGLAKMSG | -0.488 ± 0.85 |

| Substance | amyloid nucleation score |
| --- | --- |
| DHHRFRGLL | 0.657 ± 0.62 |
| DHIEMFGKVGYYHNMILW | 0.762 ± 0.37 |
| DHNLWFDNAFMSLCCCMNMI | 3.42 ± 0.19 |
| DHPCTTWVLPSYGPEDPLPC | 0.175 ± 0.35 |
| DHVSLSDSRKKRSQIGIIHA | 0.978 ± 0.45 |
| DILCASPTLLAE | 0.161 ± 0.49 |
| DILQDFIGQPLRSN | 1.04 ± 0.6 |
| DINNCSSEGRTYPFVIELPP | 1.03 ± 0.76 |
| DINSYVAYLVYEGLVNGSDE | 0.252 ± 0.46 |
| DIPIDIWSYPQHGRFS | -0.814 ± 0.79 |
| DIRVIVRIYQSIINL | 3.15 ± 0.09 |
| DIVSVVVWLKQYLWFEQWNV | 0.644 ± 0.81 |
| DKERSGTKQYNSYG | -0.039 ± 0.73 |
| DKLVYLHWPIYNVSVLCCRG | 5.14 ± 0.095 |
| DKVLQLMYMGLDSGVLPSKD | -0.789 ± 1 |
| DLCATDMGGYKRGEGPEGAL | -0.267 ± 1.1 |
| DLFCFELVDHTLLLGWTTVQ | -0.564 ± 0.66 |
| DLGKVVNCYFLFYR | 1.51 ± 0.25 |
| DLKFHLLIWVCRIGSDKNVK | 0.071 ± 1.2 |
| DLPLTYMCSN | 0.359 ± 0.7 |
| DLRSPRNS | inactive |
| DLSWGSRHY | -0.899 ± 0.42 |

| Substance | amyloid nucleation score |
| --- | --- |
| DLVYC | -0.307 ± 0.52 |
| DMFVGKTRMRRGSVMLYFMG | 0.829 ± 0.52 |
| DMSIKFCEPDFLLRNEQHNL | 0.382 ± 0.3 |
| DMTAVYLFVTVYSYDLSC | 0.569 ± 0.14 |
| DNGGSAVQEDQVLAWSTGEQ | 0.874 ± 0.23 |
| DNKFYHKVTDRRFLIPIFQI | -0.331 ± 0.37 |
| DNLSIWGL | -0.629 ± 0.89 |
| DNMYIFEN | -0.352 ± 0.46 |
| DNRLMHIIDMWCRSYFSGHT | -0.063 ± 1.4 |
| DNSLFLYQRAR | -0.449 ± 0.82 |
| DPIRCMCVFMVHPCRCDID | 0.45 ± 1.1 |
| DPNFITMACQIADECAYCCH | inactive |
| DQVISNCRLNMGV | -0.369 ± 0.56 |
| DRATGISEAVEWHGRWVGKN | -0.534 ± 0.83 |
| DRCSY | -0.431 ± 0.39 |
| DRFGWF | -0.148 ± 0.32 |
| DRFLETICSEGSRPGSGN | 0.917 ± 0.21 |
| DRFQNYFCILCFPFYANVCE | 2.71 ± 0.12 |
| DRGDLAFSFSGQRTGGKEPR | -0.219 ± 0.51 |
| DRLVGWVVWLHVVFPRMYVL | 0.483 ± 0.72 |
| DRMLHKAI | -0.624 ± 1.5 |
| DRNLDEWGEASL | -0.145 ± 1.5 |

| Substance | amyloid nucleation score |
| --- | --- |
| DRREGF | -0.892 ± 0.32 |
| DRVSCNEEFQRKCIFTVIRR | 1.19 ± 0.63 |
| DSDLRLNLCELTFVPWRRSG | 2.86 ± 0.19 |
| DSLSGSICGFRLYALLFTLT | -0.113 ± 0.53 |
| DSQVL | 1.25 ± 0.56 |
| DSRLGLMWMYEPIIRDGKWF | 0.802 ± 0.9 |
| DSRPCGYSRITFVCKGCAPC | 0.53 ± 0.79 |
| DSRVKRY | inactive |
| DSSCADR | 0.674 ± 0.41 |
| DSSVLRMQRVDRTRAFTYHW | -0.68 ± 0.56 |
| DSWIQHGGCEFVLIVRRHFI | 0.714 ± 0.97 |
| DSWYRLLLARACNISHVRGR | -0.527 ± 0.48 |
| DSYWFRRLC | 0.22 ± 0.71 |
| DTKIDACIRNSLHGWSRMAR | 0.181 ± 0.38 |
| DTNIHRVEFLISFFGRELSQ | inactive |
| DTSGSYMLSYLWGYWQLRSA | 0.073 ± 0.56 |
| DTVSMLHQLVCW | 7.245 ± 0.053 |
| DTVYDFTMPAWYDYMFWTKW | inactive |
| DVDGEVRVLDFV | -0.24 ± 0.45 |
| DVIHDICHAVSIIGAWCRDR | -0.061 ± 0.3 |
| DVKCRLWIHAL | -0.066 ± 0.54 |
